Laboratory results reported in paper PMC3509593, “Role of Key Residues at the Flavin Mononucleotide (FMN):Adenylyltransferase Catalytic Site of the Bifunctional Riboflavin Kinase/Flavin Adenine Dinucleotide (FAD) Synthetase from Corynebacterium ammoniagenes” (International Journal of Molecular Sciences, 2012).
Read-outs that look alike come from different tables or passages of the source.

Legend:
[1] = tested on: CaFADS; details: FADpp activity; 37 °C, 20 mM PIPES, 10 mM MgCl2, pH 7.0
Procedure: The CaFADS FMNAT and FADpp activities were fluorimetrically measured using a continuous assay. […] Measurements were performed in a Cary Eclipse spectrophotofluorimeter with excitation and emission wavelengths at 420 nm and 530 nm, respectively. FAD and FMN fluorescence were individually calibrated using standard solutions. The rate of FAD formation was calculated from the rate of fluorescence decrease (ΔF/Δt), measured as the tangent to the initial part of the experimental curve by applying the equation:
where ΔF is the decrease in the value of the fluorescence expressed in arbitrary units, Δt is the measurement of reaction time expressed in per minute, and KFMN and KFAD are the FMN and FAD fluorescent rate constants expressed in per micromolar [37]. The kinetic data obtained for one substrate at saturated concentrations of the second one were interpreted using the Michaelis-Menten kinetic model.

[2] = target: T1, CaFADS (Corynebacterium ammoniagenes, UniProt Q59263); details: RFK activity, cited from earlier work
T1 construct: made in house; host or cells: E. coli (pET28a-CaFADS plasmid)

[3] = tested on: CaFADS; details: 25 °C; for Kd: 20 mM PIPES pH 7.0
Procedure: Measurements were carried out using a high precision VP-ITC (MicroCal LLC, Northampton, MA, USA) following the procedure described previously. Typically, 200 μM FAD or FMN and 300 μM ATP solutions were used to titrate ~20 μM CaFADS. Ligand and CaFADS were dissolved in 20 mM PIPES, pH 7.0, at the indicated MgCl2 concentration. Control titrations were performed by injecting ligand into buffer solution. The association constant, the enthalpy change (ΔH) and the stoichiometry, or their average values, were obtained through non-linear regression of the experimental data to a home derived model for one or two independent binding sites implemented in Origin 7.0 (OriginLab Corporation, Northampton, MA, 2002) (see Supplementary Material). The Kd, the free energy change (ΔG), and the entropy change (ΔS) were obtained from basic thermodynamic relationships. Experiments were performed in duplicate or triplicate.
The association constant (Ka), the enthalpy change (ΔH) and the stoichiometry (N), or their average values, were obtained through non-linear regression of the experimental data to a model for one or two independent binding sites implemented in Origin 7.0 (OriginLab Corporation, Northampton, MA, USA, 2002).
The nominal protein concentration was normalised by a factor n (nP0, instead of P0) accounting for either the stoichiometry or the fraction of active (binding-competent) protein.

[4] = Thermal denaturation by differential scanning calorimetry (DSC); format: physicochemical; details: 20 mM PIPES, 10 mM MgCl2, pH 7.0
Procedure: Thermal stability was determined with a VP-DSC microcalorimeter (MicroCal LLC, Northampton, MA, USA). Protein samples and reference solutions were degassed and carefully loaded into the cells to avoid bubble formation. The baseline of the instrument was routinely recorded before the experiments with both cells filled with buffer. […] Errors in the Tm,app data are within ±0.3–0.5 °C.

[5] = target: T1, CaFADS; design: method as in PMID 22892871; details: FMNAT activity; 37 °C, 20 mM PIPES, 10 mM MgCl2, pH 7.0; cited from earlier work
[6] = ligand ATP, 10 mM Mg^2+, pH 7.0
[7] = ligand FAD, 10 mM Mg^2+, pH 7.0
[8] = ligand FMN, 10 mM Mg^2+, pH 7.0

B1: WT: wild-type FAD synthetase from Corynebacterium ammoniagenes (CaFADS), over-expressed in E. coli (protein)
chain: MDIWYGTAAVPKDLDNSAVTIGVFDGVHRGHQKLINATVEKAREVGAKAIMVTFDPHPVSVFLPRRAPLGITTLAERFALAESFGIDGVLVIDFTRELSGTSPEKYVEFLLEDTLHASHVVVGANFTFGENAAGTADSLRQICQSRLTVDVIDLLDDEGVRISSTTVREFLSEGDVARANWALGRHFYVTGPVVRGAGRGGKELGFPTANQYFHDTVALPADGVYAGWLTILPTEAPVSGNMEPEVAYAAAISVGTNPTFGDEQRSVESFVLDRDADLYGHDVKVEFVDHVRAMEKFDSVEQLLEVMAKDVQKTRTLLAQDVQAHKMAPETYFLQAES
kcat [1]: 0.217 s⁻¹ | kcat (apparent) ([2]; saturated ATP, varying RF, 37 °C, 0.8 mM MgCl2, pH 7.0): 5.02 s⁻¹ | kcat (apparent) ([2]; varying ATP, RF concentration exhibiting ~80% maximal activity): 1.13 s⁻¹ | ΔG FADS:ATP ([3]; ligand ATP, 0 mM Mg^2+, pH 7.0): -7.2 kcal/mol | ΔH FADS:ATP ([3]; ligand ATP, 0 mM Mg^2+, pH 7.0): -31 kcal/mol | −TΔS FADS:ATP ([3]; ligand ATP, 0 mM Mg^2+, pH 7.0): 24 kcal/mol | ΔG FADS:ATP [3, 6]: -6.2 kcal/mol | ΔH FADS:ATP [3, 6]: -30 kcal/mol | −TΔS FADS:ATP [3, 6]: 23 kcal/mol | ΔG FADS:FAD [3, 7]: -8.4 kcal/mol | ΔH FADS:FAD [3, 7]: -26 kcal/mol | −TΔS FADS:FAD [3, 7]: 18 kcal/mol | ΔG FADS:FMN [3, 8]: -7.0 kcal/mol | ΔH FADS:FMN [3, 8]: -35 kcal/mol | −TΔS FADS:FMN [3, 8]: 28 kcal/mol | Kd ([3]; read-out: Kd FADS:ATP (average, Kd,av^ATP:Mg, for two ATP:Mg^2+ binding sites), ligand ATP, 10 mM Mg^2+): 30 µM | Kd ([3]; read-out: Kd FADS:ATP, ligand ATP, 0 mM Mg^2+): 5.5 µM | Kd ([3]; read-out: Kd FADS:FAD, ligand FAD, 10 mM Mg^2+): 0.7 µM | Kd ([3]; read-out: Kd FADS:FMN, ligand FMN, 10 mM Mg^2+): 7.8 µM | Tm,app [4]: 42.5 °C | kcat [5]: 0.283 s⁻¹
